Assay results taken from CN116917323A.

Columns and labels:
[1] = molecular target: T1, 人B7-H4 (细胞表面B7-H4) (human) (UniProt Q7Z7D3); experiment: flow cytometry on MX-1 cells
T1 sequence (looked up): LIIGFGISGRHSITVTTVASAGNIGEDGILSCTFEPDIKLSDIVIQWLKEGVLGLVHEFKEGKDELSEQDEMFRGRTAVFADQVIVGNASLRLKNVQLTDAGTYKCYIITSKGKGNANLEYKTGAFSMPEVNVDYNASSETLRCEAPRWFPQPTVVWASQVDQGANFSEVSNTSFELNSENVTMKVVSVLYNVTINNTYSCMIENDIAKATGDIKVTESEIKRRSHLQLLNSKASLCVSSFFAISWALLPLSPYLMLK

[2] = molecular target: T1, 人B7-H4 (细胞表面B7-H4) (human); experiment: flow cytometry on HCC1569 cells
[3] = molecular target: T2, 重组人B7-H4蛋白(R&D Systems#6576-B7-050) (human) (UniProt Q7Z7D3); experiment: BLI (Octet), antibody on anti-human Fc sensor, recombinant human B7-H4 as analyte, 25 °C
T2 sequence (looked up): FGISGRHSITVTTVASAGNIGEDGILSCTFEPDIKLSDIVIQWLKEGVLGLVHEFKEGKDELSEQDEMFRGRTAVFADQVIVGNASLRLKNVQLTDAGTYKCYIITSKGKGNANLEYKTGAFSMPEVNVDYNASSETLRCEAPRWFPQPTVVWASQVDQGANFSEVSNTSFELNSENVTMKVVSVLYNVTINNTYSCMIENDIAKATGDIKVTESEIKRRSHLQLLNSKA

B1: 1D11抗体 (antibody, from another filing, V domains shown)
VH: QVQLQQSGAELVRPGTSVKMSCKASGYTFTSYWIGWAKQRPGHGFEWIGDIYPGGGYTNYNEKFKGKATLTADKSSSTAYMQFSSLTSEDSAIYYCARLDGSSYRGAMDSWGQGTSITVSS
VL: DIQMTQSPSSLSASLGGKVTITCKASQGFNKYVAWYQHKPGQCPRLLIHYTSTLQPGIPARFSGSGSGRDYSFSISNLEPEDSATYFCLQYGNLLYAFGGGTKLEIKR
EC50 [1]: 4.9 nM
EC50 [2]: 3.44 nM
K d, fold lower than that of B4-H4 2F9 [3]: > 100 fold
